From the Immune Epitope Database (IEDB) come the findings set out here.

The target of test [1] is HLA-B*57:01. The test is described as follows: IEDB peptide-MHC binding, purified MHC/competitive/fluorescence; filed as Kd, often an IC50 or EC50 that approximates it; ≥ and ≤ were set here for values at or beyond the usual limits of such assays. As to conditions: source organism: Zaire ebolavirus.
The target of a further test is HLA-B*39:01. The description is as above. As to conditions: source organism: Zaire ebolavirus.
The next test addresses HLA-A*69:01. The test is described as above. As to conditions: source organism: Zaire ebolavirus.
In a further test the target is HLA-B*51:01. Described as above. The conditions noted are these: source organism: Zaire ebolavirus.
The target in a further test is HLA-B*35:01. The description is as above. The conditions noted are these: source organism: Zaire ebolavirus.
The next test addresses HLA-B*27:03. The test is described as above. The conditions noted are these: source organism: Zaire ebolavirus.
The target of test [2] is HLA-A*02:01. The test is described as above.
A further test has as its target HLA-A*25:01. The test is described as above. As to conditions: source organism: Zaire ebolavirus.
The next test addresses HLA-A*26:01. Described as above. As to conditions: source organism: Zaire ebolavirus.
A further test deals with HLA-A*02:03. In words: IEDB peptide-MHC binding, purified MHC/direct/fluorescence; filed as Kd, often an IC50 or EC50 that approximates it; ≥ and ≤ were set here for values at or beyond the usual limits of such assays. The conditions noted are these: source organism: Zaire ebolavirus.
The target in test [3] is HLA-B*15:01. The description is as above. As to conditions: source organism: Sudan ebolavirus - Maleo (1979).
A further test concerns the target HLA-A*68:02. The description is as above. The conditions noted are these: source organism: Zaire ebolavirus.
In a further test the target is HLA-A*02:16. The test is described as above. As to conditions: source organism: Zaire ebolavirus.
Test [4] addresses HLA-A*03:01. The description is as above. The conditions noted are these: source organism: Zaire ebolavirus.
Another test has as its target HLA-A*02:12. Described as above. As to conditions: source organism: Zaire ebolavirus.
The next test concerns the target HLA-A*02:11. The description is as above. As to conditions: source organism: Zaire ebolavirus.
Another test deals with HLA-A*02:19. Described as above. As to conditions: source organism: Zaire ebolavirus.
Test [5] concerns the target HLA-A*24:02. In words: IEDB peptide-MHC binding, purified MHC/competitive/fluorescence; ≥ and ≤ were set here for values at or beyond the usual limits of such assays. As to conditions: source organism: Homo sapiens.
Another test concerns the target HLA-B*40:02. The test is described as above. As to conditions: source organism: Homo sapiens.
For another test, the target named is HLA-C*07:02. In words: IEDB peptide-MHC binding, purified MHC/direct/fluorescence; filed as Kd, often an IC50 or EC50 that approximates it; ≥ and ≤ were set here for values at or beyond the usual limits of such assays. As to conditions: source organism: Homo sapiens.
Another test addresses HLA-A*11:01. The test is described as follows: IEDB peptide-MHC binding, purified MHC/competitive/radioactivity; ≥ and ≤ were set here for values at or beyond the usual limits of such assays. As to conditions: source organism: Toxoplasma gondii.
In test [6] the target is HLA-A*02:01. Described as above. As to conditions: source organism: Toxoplasma gondii.
In test [7] the target is HLA-B*07:02. The description is as above. As to conditions: source organism: Toxoplasma gondii.
For another test, the target named is HLA-B*46:01. In words: IEDB peptide-MHC binding, purified MHC/direct/fluorescence; filed as Kd, often an IC50 or EC50 that approximates it; ≥ and ≤ were set here for values at or beyond the usual limits of such assays. The conditions noted are these: source organism: dengue virus type 4.
A further test has as its target HLA-B*15:02. The description is as above. The conditions noted are these: source organism: dengue virus type 4.
In test [8] the target is HLA-B*57:01. In words: IEDB peptide-MHC binding, purified MHC/competitive/radioactivity; filed as Kd, often an IC50 or EC50 that approximates it; ≥ and ≤ were set here for values at or beyond the usual limits of such assays. The conditions noted are these: source organism: Dengue virus 4 Philippines/H241/1956.
The next test deals with HLA-A*30:02. The description is as above. As to conditions: source organism: Dengue virus 4 Philippines/H241/1956.
A further test addresses HLA-A*32:01. The description is as above. As to conditions: source organism: Dengue virus 4 Philippines/H241/1956.
The target of test [9] is HLA-A*01:01. The description is as above. As to conditions: source organism: Dengue virus 4 Philippines/H241/1956.
For test [10], the target named is HLA-A*24:02. In words: IEDB peptide-MHC binding, purified MHC/competitive/fluorescence; filed as Kd, often an IC50 or EC50 that approximates it; ≥ and ≤ were set here for values at or beyond the usual limits of such assays. The conditions noted are these: source organism: Corynebacterium glutamicum ATCC 13032.
Test [11] has as its target HLA-B*15:01. The test is described as above. As to conditions: source organism: Corynebacterium glutamicum ATCC 13032.
The next test concerns the target HLA-B*40:01. The description is as above. The conditions noted are these: source organism: Corynebacterium glutamicum ATCC 13032.
A further test concerns the target HLA-B*27:05. The description is as above. The conditions noted are these: source organism: Corynebacterium glutamicum ATCC 13032.
Test [12] deals with HLA-A*03:01. The description is as above.
For test [13], the target named is HLA-A*01:01. Described as above. The conditions noted are these: source organism: Corynebacterium glutamicum ATCC 13032.
Test [14] has as its target HLA-B*07:02. The test is described as above. The conditions noted are these: source organism: Corynebacterium glutamicum ATCC 13032.
The next test has as its target HLA-B*58:01. Described as above. As to conditions: source organism: Corynebacterium glutamicum ATCC 13032.
A further test addresses HLA-A*31:01. The test is described as above. As to conditions: source organism: Shigella flexneri 5 str. 8401.
The next test deals with HLA-B*83:01. The description is as above. The conditions noted are these: source organism: Shigella flexneri 5 str. 8401.
The target of the next test is HLA-A*68:23. The test is described as above. The conditions noted are these: source organism: Shigella flexneri 5 str. 8401.
The target in a further test is HLA-B*45:06. The test is described as above. The conditions noted are these: source organism: Shigella flexneri 5 str. 8401.
The target in the next test is HLA-B*15:42. The description is as above. As to conditions: source organism: Shigella flexneri 5 str. 8401.
Where [15] appears, read: source organism: Corynebacterium glutamicum ATCC 13032.

Consider NFFHASLAY, for which the Kd with HLA-B*57:01 [1] was at least 20000 nM; with HLA-B*39:01 it was at least 20000 nM; with HLA-A*69:01, at least 20000 nM; with HLA-B*51:01, at least 20000 nM; with HLA-B*35:01 it was 6 nM; with HLA-B*27:03, at least 20000 nM. For the same sequence, the Kd in the test with HLA-A*02:01 [2] (source organism: Zaire ebolavirus) is at least 20000 nM; with HLA-A*25:01, at least 20000 nM; with HLA-A*26:01, at least 20000 nM; with HLA-A*02:03, at least 20000 nM; in the test with HLA-B*15:01 [3], 64.1 nM; with HLA-A*68:02, at least 20000 nM. Further, the equilibrium dissociation constant (Kd) with HLA-A*02:16, with HLA-A*03:01 [4], with HLA-A*02:12, in the test with HLA-A*02:11 and with HLA-A*02:19 was at least 20000 nM each time.

With FYYNAFHWAI, the IC50 is 305 nM in the test with HLA-A*24:02 [5] and at least 20000 nM with HLA-B*40:02. In the test with HLA-C*07:02, the Kd worked out at 182 nM.

On to STFWPCLLR, for which the IC50 is 9.3 nM in the test with HLA-A*11:01, 27000 nM with HLA-A*02:01 [6] and at least 50000 nM with HLA-B*07:02 [7].

Consider RTWAYHGSY, for which the Kd in the test with HLA-B*46:01 is at least 20000 nM; in the test with HLA-B*15:02 it was at least 20000 nM; with HLA-B*57:01 [8], 15.8 nM; with HLA-A*30:02, 0.19 nM; in the test with HLA-A*32:01, 1.46 nM; with HLA-A*01:01 [9], 1280 nM.

As to MSSAAHLLY, the Kd was at least 20000 nM with HLA-A*24:02 [10]; 46.5 nM in the test with HLA-B*15:01 [11]; at least 20000 nM in the test with HLA-B*40:01; at least 20000 nM with HLA-B*27:05; 161 nM in the test with HLA-A*03:01 [12] (setting [15]); at least 20000 nM in the test with HLA-A*02:01 [2] (setting [15]). The Kd with HLA-A*01:01 [13] is 14.1 nM; with HLA-B*07:02 [14] it was at least 20000 nM; with HLA-B*58:01, 6.1 nM.

For the sequence TTIPTNLFR, the Kd with HLA-A*31:01 was 121 nM; in the test with HLA-B*83:01 it was at least 5000 nM; with HLA-A*03:01 [12] (source organism: Shigella flexneri 5 str. 8401), 3000 nM; in the test with HLA-A*68:23, 332 nM; with HLA-B*45:06, at least 5000 nM; with HLA-B*15:42 it was at least 5000 nM.
